Test results from US20260258115A1 (MAPP BIOPHARMACEUTICAL, published 2026).
Where a chain is given by its changes, count along the chain named.

B1: ADI-14353 (antibody, V domains shown)
VH: QVQLVQSGAEVKKPGSSVKVSCKASGGTFSSYTISWVRQAPGQGLEWMGRIKPIIGIANNAQRFKGRVTITAEKSTGTAYMELSSLTSEDTAVYYCARGGYDYYGMDVWGQGTTVTVSS
VL: QSALTQPASVSGSPGQSITISCTGTSSDVGGYNYVSWHQQHPGKAPKLLIYDVSNRPSGVSNRFSGSKSGNTASLSISGLQAEDEADYYCSSFTSTSTPYVFGTGTQLTVL
notes: full-length IgG; also called Ab 21
B2: ADI-24808 (antibody, V domains shown)
VH: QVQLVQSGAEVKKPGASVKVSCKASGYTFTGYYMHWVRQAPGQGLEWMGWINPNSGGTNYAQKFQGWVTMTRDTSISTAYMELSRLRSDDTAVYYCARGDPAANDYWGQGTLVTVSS
VL: QPVLTQPPSASGSPGQSVTISCTGTSSDVGGYNYVSWYQQHPGKAPKLMIYEVSKRPSGVPDRFSGSKSGNTASLTVSGLQAEDEADYYCSSYAGSNNVVFGGGTKLTVL
notes: full-length IgG
B3: ADI-24851 (antibody, V domains shown)
VH: not shown
VL: B2 VL with P2S, T5I
notes: full-length IgG
B4: ADI-24818 (antibody, V domains shown)
VH: not shown
VL: QPVLTQPASVSGSPGQSITISCTGTSSDVGGYNYVSWYQQHPGKAPKLMIYDVSNRPSGVSNRFSGSKSGNTASLTISGLQAEDEADYYCSSYTSSSTLVFGGGTQLTVL
notes: full-length IgG; also called Ab 380
B5: ADI-19485 (antibody, V domains shown)
VH: QVQLQESGPGLVKPSQTLSLSCTVSGGSISSTNYYWTWIRQHPGKGLEWIGFIYNRGSTYYNPSLTSRVTISVDTSKNQFSLKLTSVTAADTAVYYCARAPYYYDRNGYYTAFDIWGQGTTVTVSS
VL: EIVLTQSPATLSVSPGERATLSCRASQSVSSNLAWYQQKPGQAPRLLIYDASTRATDIPARFSGGGSGTEFTLTISSLQSEDFAVYYCQQYNNWPRTFGLGTKVDIK
notes: full-length IgG
B6: ADI-22768 (antibody, V domains shown)
VH: EVQLVESGGGLVQPGGSLRLSCAASGFTFSSYEMNWVRQAPGKGLEWVSYISSSGSTIYYADSVKGRFTISRDNAKNSLYLQMNSLRAEDTAVYYCAKSYIYDSSGYYLYYFDYWGQGTLVTVSS
VL: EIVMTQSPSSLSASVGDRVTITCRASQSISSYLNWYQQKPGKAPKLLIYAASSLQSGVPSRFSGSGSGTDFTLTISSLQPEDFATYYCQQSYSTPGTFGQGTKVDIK
notes: full-length IgG
B7: ADI-22775 (antibody, V domains shown)
VH: EVQLLESGGGVVQPGRSLRLSCAASGFTFSDYGMHWVRQAPGKGLEWVAVIWYDGSYKYYADSVKGRFTISRDNSKNTLFLQMNSLRAEDTAVYYCARESLQTHDAFDIWGQGTMVTVSS
VL: DIQMTQSPSSLSASVGDRVTITCRASQGISNSLAWYQQKPGKAPKLLLYAASRLESGVPSRFSGSGSGTDYTLTINSLQPEDFATYFCQQYYSTLTWTFGQGTKVDIK
notes: full-length IgG
B8: ADI-22779 (antibody, V domains shown)
VH: QVQLQQWGAGLLKPSETLSLTCAVYGGSFSDYSWTWIRQPPGKGLEWIGEISHTGITNYNPSLKSRVNISVDTSKNQFSLKLSSVTAADTAVYYCARADAYDSSGYYVYYFDYWGQGTLVTVSS
VL: DIQVTQSPPSLSASVGDRVTITCRASQTIASYLNWYHQKPGKAPELLIYAASSLQSGVPSRFSGSGSGTAFTLTISSLQPEDFATYYCQQSYSAPPSFGQGTKVEIK
notes: full-length IgG
B9: ADI-14343 (antibody, V domains shown)
VH: QVQLVQSGAEVKKPGSSVKVSCKASGGTFSSYGVNWVRQAPGQGLEWMGRIIPMFGTSNYAQKFQGRVTITADGSTSTAYMELSSLRSEDTAVYYCARVGSPTTGAIMGVWGQGTTVTVSS
VL: DIVLTQTPLSLPVTPGEPASISCRSSQSLLQSNGFNYLDWYLQKPGQSPKLLIYMGSNRASGVPDRFSGSGSGTDFTLIISRVEAEDVGVYYCMQAIESPLTFGGGTKVDIK
notes: full-length IgG; also called Ab 11
B10: ADI-14348 (antibody, V domains shown)
VH: QVQLVESGGGVAQPGGSLRLSCVASGFTFSNYGMHWVRQAPGKGLEWVAFIRSDGSKKYYGDSGKGRFTISRDNSKNTLYLQMNSLRAEDTALYYCARERAGATFAFDIWGQGTTVTVSS
VL: QSALTQPRSVSGSPGQSVTISCTGTSSDVGGYNFVSWYQHHPGKAPKLMIYDVTNRPSGVPDRFSGSKSGNTASLTISGLQADDEADYYCCSYAGGFTFYVFGTGTKVTVL
notes: full-length IgG; also called Ab 16
B11: ADI-14359 (antibody, V domains shown)
VH: QVQLVQSGPALVKPTQTLTLTCTFSGFSLSTSGMCVSWIRQPPGKALEWLARIDWDDDKYYSTSLKTRLTISKDTSKNQVVLTMTNMDPVDTATYYCARATNYDSSGYYSLYFDYWGQGTLVTVSS
VL: not shown
notes: full-length IgG; also called Ab 27
B12: ADI-14362 (antibody, V domains shown)
VH: EVQLLESGGGLVQPGGSLRLSCAASGFTFSSYAMSWVRQAPGKGLEWVSGISGSGGSTYYADSVKGRFTISRDNSKNTLYLEMNSLRAEDTAVYYCAKRYYYGSGTYTFDIWGQGTMVTVSS
VL: not shown
notes: full-length IgG; also called Ab 30
B13: ADI-14373 (antibody, V domains shown)
VH: QVQLQQWGAGLLKPSETLSLTCAVYGGSFSGSYWSWIRQPPGKGLEWIGEINHSGSTSYNPSLKSRVTISVDTSKKQFSLKLSSMTAADTAVYYCAGGFYYDSSGSYAPHPTFDYWGQGTLVTVSS
VL: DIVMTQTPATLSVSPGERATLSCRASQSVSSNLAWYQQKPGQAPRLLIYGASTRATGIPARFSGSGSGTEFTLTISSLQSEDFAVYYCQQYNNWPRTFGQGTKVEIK
notes: full-length IgG; also called Ab 41
B14: ADI-14381 (antibody, V domains shown)
VH: EVQLVESGGGLVQPGGSLRLSCAASGFTFSSYSMNWVRQAPGKGLEWVSYIGSSSSSVYYGDSAKGRFTISRDNAKNSLYLQMNSLRDEDTALYYCARVGWLQYCRGGSCYASFGMDVWGQGTTVTVSS
VL: DIQMTQSPSSLSASVGDRVTITCRASQGIRNDLGWYQQKPGIAPKLLIYAASSLQSGVPSRFSGSGSGTDFTLTISSLQPEDFATYYCLQDYDSPYTFGQGTKLEIK
notes: full-length IgG; also called Ab 49
B15: ADI-14382 (antibody, V domains shown)
VH: EVQLLESGGGVVQPGRSLRLSCAASGFTFSAYGFHWVRQAPGKGLEWVAVIWFDGNNKYYADSMKGRFIISRDNSKNTLYLQMNSLRAEDTAVYYCARDPKETGEFDYWGQGTLVTVSS
VL: QSALTQPASVSGSPGQSITISCTGTISDVGRYNYVSWYQQHPGKAPKLMIYDVTNRPSGVSNRFSGSKSGNTASLTISGLQAEDEAVYYCCSYTISSTYVFGTGTKLTVL
notes: full-length IgG; also called Ab 50
B16: ADI-14384 (antibody, V domains shown)
VH: QVQLQESGSGLVKPSQTLSLTCTVSGGSISSVGYSWSWIRQPPGKGLEWIGYIYHSGSPYYSPSLNSRVTISVDRSKNQFSLKLSSVTAADTAVYFCARVFFGGGGAFDIWGQGTTVTVSS
VL: QPGLTQPPSVSVAPGQTARITCGGNNIGSKSVQWYQQKPGQAPVLVMYYDSDRPSGIPDRFSGSSSGNTATLTITRVEAGDEADYSCQVWDSVNVHPVIFGGGTKLTVL
notes: full-length IgG; also called Ab 52
B17: ADI-14386 (antibody, V domains shown)
VH: EVQLVESGGGLVQPGGSLRLSCAASRFTFSSYAMSWVRQAPGKGLEWVSGIGASGGTTYYADSVKGRFTISRDNSKNTVYLQMNSLRAEDTAVYYCARCEYYYGSGSAGYYFDYWGQGTLVTVSS
VL: SYELTQPPSVSVSPGQTASITCSGDKLGSKFAFWYQQKPGQSPVLVIFQDVKRPSGIPERFSGSNSGNTATLTISGTQAMDEADYYCQAWDSGTAVFGGGTKVTVL
notes: full-length IgG; also called Ab 54
B18: ADI-14389 (antibody, V domains shown)
VH: EVQLVESGGGLVKPGGSLRLSCAASGFTFINAWMAWVRQAPGKGPEWVGRIKSRADGGTTDYAAPVKGRFTISRDDSKNRLFLQMDSLKTDDTAVYFCTTGVRALRFYNGMDVWGQGTTVTVSS
VL: ETTLTQSPSSLSASIGDRVTITCRAGQSISSFLNWYQQKPGKAPKLLIYAASTLQSGVPSRFSGSKSGTDFTLTISSLQPEDFATYYCQQSYHTFTFGPGTKVEIK
notes: full-length IgG; also called Ab 56
B19: ADI-41547 (antibody, V domains shown)
VH: QVQLVQSGAEVKKPGSSVKVSCKASGGSFSSNTINWVRQAPGQGLEWMGGIIPVFETPNYAQKFQGRVSFTADESTRTAYMELSSLRSEDTAVYFCARQGMSYYDTNGNYYVGWFDTWGQGTLVTVSS
VL: EIVLTQSPGTLSLSPGERATLSCRASQSLNNNYLAWYQRKPGQAPRLLIYGAGAFSRATGIPDRFSGSGSGTDFTLTISRLEPEDFALYYCQQYGSSPLTFGQGTRLEIK
notes: also called Ab 819; Antibody Number 819
B20: ADI-41548 (antibody, V domains shown)
VH: QVQLQQWGPGLVKPSETLSLTCTVSGASITSHYWSWLRQPAGKGLEWIGRFYPSGTTEKTPSLKSRVTLSVDTSKNHFSLKLTSVTAADTAVYYCARDSYDDIAGSYEYYFADWGQGTLVTVSS
VL: B5 VL with A51I, D57G, I58V, G65S, S76T, A84T, R96P, L100Q, V104L, D105E
notes: also called Ab 820; Antibody Number 820
B21: ADI-41549 (antibody, V domains shown)
VH: EVQLLESGGGVVQPGGSLRLSCAASGFTFSGYGMHWVRQAPGKGLEWVAFIQYNGSNKYYADSVKGRFTISRDNSKNTLYVQLNSLRAEDTAVYYCATDILVVPAATPLISYYFGMDVWGQGTTVTVSS
VL: B15 VL with I26S, R31G, H41Y, D52E, V87D, I95S, S96T, S97N, Y99R, L107V
notes: also called Ab 821; Antibody Number 821
B22: ADI-41551 (antibody, V domains shown)
VH: QVQLQESGGGVVQPGGSLRLSCAASGFTFSRHWMHWVRQVPGKGLVWVSRINSDESTIDYADSVKGRFTISRDNAKNTLYLQMNSLRAEDTAVYYCVRDMVAVPGTTGGDYWGQGTLVTVSS
VL: SYELTQPPSVSVSPGQTADITCSGDKLGDKYACWYQQRAGQSPILVLYQDTRRPSGIPERFSGSNSGDTATLTISGTQAMDEADYYCQAWDSSTAWVFGGGTKLTVL
notes: also called Ab 823; Antibody Number 823

Each binder was assayed against T1, RSV postfusion F (postF), subtype A (respiratory syncytial virus subtype A, UniProt P03420 26-513) (assay: BLI, IgG).
T1 construct: also called Postfusion subtype A; F deltaFP
Binder B1 has a Kd of 0.26 nM.
Binder B2 has a Kd of 10.8 nM.
With B3 the Kd was 20.9 nM.
For B4, the Kd was 6.47 nM.
Binder B5 has a Kd of 0.251 nM.
B6 was tested, and the Kd was 3.41 nM.
B7 gave a Kd of 30 nM.
Work on B8 yielded a Kd of 6.2 nM.
Binder B9 has a Kd of 2.94 nM.
Binder B10 has a Kd of 5.66 nM.
In the case of B11, the Kd is reported as 4.11 nM.
Binder B12 has a Kd of 15.7 nM.
Binder B13 has a Kd of 1.06 nM.
Work on B14 yielded a Kd of 0.754 nM.
Binder B15 has a Kd of 0.846 nM.
For B16, the Kd was 0.469 nM.
With B17 the Kd was 1.32 nM.
B18 gave a Kd of 22.9 nM.

These binders were tested against T2, RSV prefusion F (preF), subtype B (respiratory syncytial virus subtype B) (assay: BLI, IgG).
T2 construct: also called Prefusion subtype B
Binder B1 has a Kd of 12.6 nM.
B6 showed a Kd of 4.57 nM.
With B9 the Kd was 38.1 nM.
B10 showed a Kd of 110 nM.
B11 was tested, and the Kd was 34.6 nM.
Binder B12 has a Kd of 119 nM.
B13 gave a Kd of 15.9 nM.
With B14 the Kd was 36.7 nM.
B16 showed a Kd of 4.78 nM.
With B17 the Kd was 3.04 nM.
Binder B18 has a Kd of 81.5 nM.

The binders below were run against RSV F on RSV subtype B virus (mKate-RSV B 18537) (respiratory syncytial virus B 18537, UniProt P13843 26-574) (assay: cell-based or functional assay).
With B1 the “Neut IC50 subtype B” value was 14.6 µg/mL.

What follows are binders tested against RSV F on RSV-A2 virus (Respiratory Syncytial Virus (RSV-A2), UniProt P03420 26-574) (assay: cell-based or functional assay).
In the case of B19, the “Neutralization IC50 (RSV subtype A)” value is reported as 0.05 µg/mL.
B20 was tested, and the “Neutralization IC50 (RSV subtype A)” value was > 25 µg/mL.
With B21 the “Neutralization IC50 (RSV subtype A)” value was > 25 µg/mL.
For B22, the “Neutralization IC50 (RSV subtype A)” value was > 25 µg/mL.

Each binder was assayed against RSV prefusion F (preF), DS-Cav1 (Respiratory Syncytial Virus, UniProt P03420 26-513) (assay: BLI, IgG on anti-human IgG sensor, 100 nM antigen, 1:1 fit).
In the case of B19, the Kd is reported as 3.19 nM.
With B20 the Kd was 2.56 nM.
B21 was tested, and the Kd was 0.408 nM.
B22 was tested, and the Kd was 13 nM.

What follows are binders tested against RSV postfusion F (postF), F ΔFP (Respiratory Syncytial Virus, UniProt P03420 26-513) in the same assay as above.
B19 was tested, and the Kd was 1.08 nM.
B20 was tested, and the Kd was 1.45 nM.
Binder B21 has a Kd of 1.56 nM.
Binder B22 has a Kd of 23.8 nM.
